Data published in the supplement of paper PMC7125110.
± gives the standard error. Variants at the floor of the assay were thinned out.

B1: glmS ribozyme (parent)
chain: AUAAAAGCGCCAGAACUACAGAAAUGUAGUUGACGAGGAGGAGGUUUAUCGAAUUUUCGGCGGAUGCCUCCAAA

Experiments:
Conditions in all cases: with glucosamine-6-phosphate
glucosamine-6-phosphate [1] = variants of: B1; assay: self-cleavage kobs at 160 uM GlcN6P; higher = faster cleavage; RNA array
Outline: (§1)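 Barcoded ribozyme variants on sequenced MiSeq chips were transcribed in situ by E. coli RNA polymerase and followed at 37 °C through a hybridised Cy3 probe. Glucosamine-6-phosphate at 40 μM to 10 mM in HEPES/KCl/Mg(OAc)2 buffer was flowed in, and tiles were imaged over ~14 h. Signals were normalised to baseline and to non-cleaving reference variants, and per-tile medians were fit to one- or two-exponential decays to give kobs. Weighted Michaelis–Menten fits across concentrations gave kcat and KM.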

glucosamine-6-phosphate [2] = variants of: B1; assay: self-cleavage kobs at 640 uM GlcN6P; higher = faster cleavage; RNA array
Outline: as §1

glucosamine-6-phosphate [3] = variants of: B1; assay: self-cleavage kobs at 2500 uM GlcN6P; higher = faster cleavage; RNA array
Outline: as §1

glucosamine-6-phosphate [4] = variants of: B1; assay: self-cleavage kobs at 10000 uM GlcN6P; higher = faster cleavage; RNA array
Outline: as §1

glucosamine-6-phosphate [5] = variants of: B1; assay: self-cleavage kobs at 40 uM GlcN6P; higher = faster cleavage; RNA array
Outline: as §1

Variant | self-cleavage kobs at 160 uM GlcN6P (glucosamine-6-phosphate [1]) [s⁻¹] | self-cleavage kobs at 640 uM GlcN6P (glucosamine-6-phosphate [2]) [s⁻¹] | self-cleavage kobs at 2500 uM GlcN6P (glucosamine-6-phosphate [3]) [s⁻¹] | self-cleavage kobs at 10000 uM GlcN6P (glucosamine-6-phosphate [4]) [s⁻¹] | self-cleavage kobs at 40 uM GlcN6P (glucosamine-6-phosphate [5]) [s⁻¹]
C8U G35A G43U | < 1e-05 | < 1e-05 | < 1e-05 | – | –
G7A U30C C61A C67U | < 1e-05 | – | – | – | –
G7A U57A | < 1e-05 | < 1e-05 | < 1e-05 | < 1e-05 | –
C8U G32C G43C C70G | < 1e-05 | – | – | – | –
A6G G9U G32C G40U U45A U47G U69C | < 1e-05 | – | – | – | –
C8A G60U U69A | < 1e-05 | < 1e-05 | – | – | –
A6G G7U C34G | < 1e-05 | < 1e-05 | < 1e-05 | – | –
A6G A52G G63U | < 1e-05 | < 1e-05 | < 1e-05 | – | –
C8G A14G C34G | < 1e-05 | < 1e-05 | < 1e-05 | – | –
A6C G35C G44U | < 1e-05 | < 1e-05 | < 1e-05 | – | –
A6U U31A G43U | < 1e-05 | < 1e-05 | < 1e-05 | – | –
G7U G13U A14U A48G U54A | < 1e-05 | < 1e-05 | < 1e-05 | – | –
C61U A64U | < 1e-05 | < 1e-05 | < 1e-05 | < 1e-05 | < 1e-05
A6U U45A A48G | < 1e-05 | < 1e-05 | – | – | –
A6C U30G | < 1e-05 | – | – | – | –
G7U A14U U55C C70U | < 1e-05 | – | – | – | –
G7A G62C C67G | < 1e-05 | < 1e-05 | < 1e-05 | – | –
G7A A33U G44U | < 1e-05 | – | < 1e-05 | – | –
C8G G13U G43A U46G C50U | < 1e-05 | < 1e-05 | – | – | –
A6G G29C C70G | < 1e-05 | – | < 1e-05 | < 1e-05 | –
G7A G35U | < 1e-05 | < 1e-05 | – | < 1e-05 | –
G59C C70U | – | < 1e-05 | – | – | < 1e-05
G7A C58A | < 1e-05 | < 1e-05 | < 1e-05 | – | –
C8A A36U C50G A52U | < 1e-05 | < 1e-05 | < 1e-05 | – | –
G7C A48C C50U | < 1e-05 | – | – | < 1e-05 | –

Variant | self-cleavage kobs at 160 uM GlcN6P (glucosamine-6-phosphate [1]) [s⁻¹] | self-cleavage kobs at 640 uM GlcN6P (glucosamine-6-phosphate [2]) [s⁻¹] | self-cleavage kobs at 2500 uM GlcN6P (glucosamine-6-phosphate [3]) [s⁻¹] | self-cleavage kobs at 10000 uM GlcN6P (glucosamine-6-phosphate [4]) [s⁻¹] | self-cleavage kobs at 40 uM GlcN6P (glucosamine-6-phosphate [5]) [s⁻¹]
G63C A64C | < 1e-05 | – | – | < 1e-05 | < 1e-05
C61U C68G C70A | – | – | – | – | < 1e-05
G66A U69A | 0.000185 ± 3.8e-05 | 0.0005 ± 9.3e-05 | 0.000595 ± 0.00011 | 0.00178 ± 0.00037 | 8.7e-05 ± 1.7e-05
A6G C50U U54C | < 1e-05 | < 1e-05 | < 1e-05 | – | –
G59C G66U | < 1e-05 | < 1e-05 | – | < 1e-05 | < 1e-05
A6C A53U G63A | < 1e-05 | < 1e-05 | < 1e-05 | – | –
C61A G62C | < 1e-05 | < 1e-05 | – | < 1e-05 | < 1e-05
G7U U46A C50G G60A U65G U69A | 0.000502 ± 0.00021 | – | – | – | –
C8A G35C C61G | < 1e-05 | < 1e-05 | < 1e-05 | – | –
A6G G13U G29C C50G | 0.000248 ± 5.8e-05 | 0.00012 ± 4.1e-05 | 0.000163 ± 4.4e-05 | – | –
A64G C68U | < 1e-05 | – | 2.62e-05 ± 9e-06 | 3.13e-05 ± 9.2e-06 | < 1e-05
A6G G40U U54A | < 1e-05 | < 1e-05 | – | – | –
G7C C70G | < 1e-05 | < 1e-05 | < 1e-05 | – | –
C61U C68U C70A | – | – | < 1e-05 | – | < 1e-05
A6U A42C | < 1e-05 | – | < 1e-05 | < 1e-05 | –
C8A G40C G41C G63U | < 1e-05 | < 1e-05 | – | – | –
G7C C61U | < 1e-05 | < 1e-05 | < 1e-05 | – | –
G7C C61A | < 1e-05 | < 1e-05 | – | – | –
C61G A64U C68A | – | – | – | – | < 1e-05
G62U A64U | – | < 1e-05 | – | < 1e-05 | < 1e-05
G7A G41A C70G | < 1e-05 | – | – | – | –
G62U U65G | < 1e-05 | < 1e-05 | < 1e-05 | < 1e-05 | < 1e-05
C8U A33G C34G A36U U65C | < 1e-05 | – | < 1e-05 | – | –
A6C U49A C50U | < 1e-05 | < 1e-05 | – | – | –
